From the supplement of paper PMC5998384

Key:
HeLa Kyoto [1] = assay: solubility in G1/S (NP-40 vs SDS abundance) (log2 ratio); higher = more soluble; conditions: cell cycle stage: G1/S
HeLa Kyoto [2] = assay: solubility change mitosis vs G1/S (difference of NP-40 vs SDS log2 ratios) (log2 ratio difference); higher = more soluble in mitosis
HeLa Kyoto [3] = assay: thermal stability score vs G1/S (z-score of summed log2 fold changes over temperatures); higher = more thermally stable than in G1/S
HeLa Kyoto [4] = assay: melting temperature (median over replicates), in situ; higher = more thermally stable
[5] = cell cycle stage: early G1 (4.5 h after nocodazole release)
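Wherever melting temperature (median over replicates), in situ is given: HeLa Kyoto cells synchronized by double thymidine or nocodazole block, proteins quantified by TMT10plex mass spectrometry, three independent biological replicates.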
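Wherever solubility change mitosis vs G1/S (difference of NP-40 vs SDS log2 ratios) is given: synchronized HeLa Kyoto cells (double thymidine block for G1/S, nocodazole release for mitosis), protein amounts in NP-40 versus SDS lysates quantified by mass spectrometry, three biological replicates.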
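Wherever solubility in G1/S (NP-40 vs SDS abundance) is given: HeLa Kyoto cells arrested at G1/S by double thymidine block, proteins quantified by TMT10plex mass spectrometry in mild NP-40 versus SDS extracts, three biological replicates.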
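Wherever thermal stability score vs G1/S (z-score of summed log2 fold changes over temperatures) is given: synchronized HeLa Kyoto cells, proteins quantified by TMT10plex mass spectrometry, three biological replicates, mitosis taken 0.5 h after nocodazole release, G1/S directly after double thymidine block.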

Row | Sequence | solubility in G1/S (log2) (HeLa Kyoto [1]) | solubility change mitosis (log2) (HeLa Kyoto [2]) | thermal stability score (HeLa Kyoto [3]; [5]) | thermal stability score (HeLa Kyoto [3]; cell cycle stage: mitosis) | melting temperature (HeLa Kyoto [4]; cell cycle stage: G1/S) | melting temperature (HeLa Kyoto [4]; cell cycle stage: mitosis)
1 | MRLGSGTFATCCVAIEVLGIAVFLRGFFPAPVRSSARAEHGAEPPAPEPSAGASSNWTTLPPPLFSKVVIVLIDALRDDFVFGSKGVKFMPYTTYLVEKGASHSFVAEAKPPTVTMPRIKALMTGSLPGFVDVIRNLNSPALLEDSVIRQAKAAGKRIVFYGDETWVKLFPKHFVEYDGTTSFFVSDYTEVDNNVTRHLDKVLKRGDWDILILHYLGLDHIGHISGPNSPLIGQKLSEMDSVLMKIHTSLQSKERETPLPNLLVLCGDHGMSETGSHGASSTEEVNTPLILISSAFERKPGDIRHPKHVQQTDVAATLAIALGLPIPKDSVGSLLFPVVEGRPMREQLRFLHLNTVQLSKLLQENVPSYEKDPGFEQFKMSERLHGNWIRLYLEEKHSEVLFNLGSKVLRQYLDALKTLSLSLSAQVAQYDIYSMMVGTVVVLEVLTLLLLSVPQALRRKAELEVPLSSPGFSLLFYLVILVLSAVHVIVCTSAESSCYFCGLSWLAAGGVMVLASALLCVIVSVLTNVLVGGNTPRKNPMHPSSRWSELDLLILLGTAGHVLSLGASSFVEEEHQTWYFLVNTLCLALSQETYRNYFLGDDGEPPCGLCVEQGHDGATAAWQDGPGCDVLERDKGHGSPSTSEVLRGREKWMVLASPWLILACCRLLRSLNQTGVQWAHRPDLGHWLTSSDHKAELSVLAALSLLVVFVLVQRGCSPVSKAALALGLLGVYCYRAAIGSVRFPWRPDSKDISKGIIEARFVYVFVLGILFTGTKDLLKSQVIAADFKLKTVGLWEIYSGLVLLAALLFRPHNLPVLAFSLLIQTLMTKFIWKPLRHDAAEITVMHYWFGQAFFYFQGNSNNIATVDISAGFVGLDTYVEIPAVLLTAFGTYAGPVLWASHLVHFLSSETRSGSALSHACFCYALICSIPVFTYIVLVTSLRYHLFIWSVFSPKLLYEGMHLLITAAVCVFFTAMDQTRLTQS [PIGG] | -0.239 | 0.00219 | 0.623 | -0.407 | 54.1 °C | 53.8 °C
2 | MAVPAAAMGPSALGQSGPGSMAPWCSVSSGPSRYVLGMQELFRGHSKTREFLAHSAKVHSVAWSCDGRRLASGSFDKTASVFLLEKDRLVKENNYRGHGDSVDQLCWHPSNPDLFVTASGDKTIRIWDVRTTKCIATVNTKGENINICWSPDGQTIAVGNKDDVVTFIDAKTHRSKAEEQFKFEVNEISWNNDNNMFFLTNGNGCINILSYPELKPVQSINAHPSNCICIKFDPMGKYFATGSADALVSLWDVDELVCVRCFSRLDWPVRTLSFSHDGKMLASASEDHFIDIAEVETGDKLWEVQCESPTFTVAWHPKRPLLAFACDDKDGKYDSSREAGTVKLFGLPNDS [THOC3] | -0.421 | 0.047 | -1.08 | 1.13 | 50.6 °C | 51.9 °C
3 | MPNIVLFSGSSHQDLSQRVADRLGLELGKVVTKKFSNQETSVEIGESVRGEDVYIIQSGCGEINDNLMELLIMINACKIASSSRVTAVIPCFPYARQDKKDKSRAPISAKLVANMLSVAGADHIITMDLHASQIQGFFDIPVDNLYAEPAVLQWIRENIAEWKNCIIVSPDAGGAKRVTSIADRLNVEFALIHKERKKANEVDRMVLVGDVKDRVAILVDDMADTCGTICHAADKLLSAGATKVYAILTHGIFSGPAISRINNAAFEAVVVTNTIPQEDKMKHCTKIQVIDISMILAEAIRRTHNGESVSYLFSHVPL [PRPS2] | -0.014 | -0.112 | 3.16 | 2.12 | 55.1 °C | 55.9 °C
4 | MEDRLHMDNGLVPQKIVSVHLQDSTLKEVKDQVSNKQAQILEPKPEPSLEIKPEQDGMEHVGRDDPKALGEEPKQRRGSASGSEPAGDSDRGGGPVEHYHLHLSSCHECLELENSTIESVKFASAENIPDLPYDYSSSLESVADETSPEREGRRVNLTGKAPNILLYVGSDSQEALGRFHEVRSVLADCVDIDSYILYHLLEDSALRDPWTDNCLLLVIATRESIPEDLYQKFMAYLSQGGKVLGLSSSFTFGGFQVTSKGALHKTVQNLVFSKADQSEVKLSVLSSGCRYQEGPVRLSPGRLQGHLENEDKDRMIVHVPFGTRGGEAVLCQVHLELPPSSNIVQTPEDFNLLKSSNFRRYEVLREILTTLGLSCDMKQVPALTPLYLLSAAEEIRDPLMQWLGKHVDSEGEIKSGQLSLRFVSSYVSEVEITPSCIPVVTNMEAFSSEHFNLEIYRQNLQTKQLGKVILFAEVTPTTMRLLDGLMFQTPQEMGLIVIAARQTEGKGRGGNVWLSPVGCALSTLLISIPLRSQLGQRIPFVQHLMSVAVVEAVRSIPEYQDINLRVKWPNDIYYSDLMKIGGVLVNSTLMGETFYILIGCGFNVTNSNPTICINDLITEYNKQHKAELKPLRADYLIARVVTVLEKLIKEFQDKGPNSVLPLYYRYWVHSGQQVHLGSAEGPKVSIVGLDDSGFLQVHQEGGEVVTVHPDGNSFDMLRNLILPKRR [HLCS] | -0.0872 | -0.216 | -0.0478 | 0.641 | 50.8 °C | 51 °C
5 | MADEELEALRRQRLAELQAKHGDPGDAAQQEAKHREAEMRNSILAQVLDQSARARLSNLALVKPEKTKAVENYLIQMARYGQLSEKVSEQGLIEILKKVSQQTEKTTTVKFNRRKVMDSDEDDDY [PDCD5] | -0.112 | 0.568 | -5.9 | -7.32 | 54.3 °C | 52.3 °C
6 | MAKMEVKTSLLDNMIGVGDMVLLEPLNEETFINNLKKRFDHSEIYTYIGSVVISVNPYRSLPIYSPEKVEEYRNRNFYELSPHIFALSDEAYRSLRDQDKDQCILITGESGAGKTEASKLVMSYVAAVCGKGAEVNQVKEQLLQSNPVLEAFGNAKTVRNDNSSRFGKYMDIEFDFKGDPLGGVISNYLLEKSRVVKQPRGERNFHVFYQLLSGASEELLNKLKLERDFSRYNYLSLDSAKVNGVDDAANFRTVRNAMQIVGFMDHEAESVLAVVAAVLKLGNIEFKPESRVNGLDESKIKDKNELKEICELTGIDQSVLERAFSFRTVEAKQEKVSTTLNVAQAYYARDALAKNLYSRLFSWLVNRINESIKAQTKVRKKVMGVLDIYGFEIFEDNSFEQFIINYCNEKLQQIFIELTLKEEQEEYIREDIEWTHIDYFNNAIICDLIENNTNGILAMLDEECLRPGTVTDETFLEKLNQVCATHQHFESRMSKCSRFLNDTSLPHSCFRIQHYAGKVLYQVEGFVDKNNDLLYRDLSQAMWKASHALIKSLFPEGNPAKINLKRPPTAGSQFKASVATLMKNLQTKNPNYIRCIKPNDKKAAHIFNEALVCHQIRYLGLLENVRVRRAGYAFRQAYEPCLERYKMLCKQTWPHWKGPARSGVEVLFNELEIPVEEYSFGRSKIFIRNPRTLFKLEDLRKQRLEDLATLIQKIYRGWKCRTHFLLMKKSQIVIAAWYRRYAQQKRYQQTKSSALVIQSYIRGWKARKILRELKHQKRCKEAVTTIAAYWHGTQARRELRRLKEEARNKHAIAVIWAYWLGSKARRELKRLKEEARRKHAVAVIWAYWLGLKVRREYRKFFRANAGKKIYEFTLQRIVQKYFLEMKNKMPSLSPIDKNWPSRPYLFLDSTHKELKRIFHLWRCKKYRDQFTDQQKLIYEEKLEASELFKDKKALYPSSVGQPFQGAYLEINKNPKYKKLKDAIEEKIIIAEVVNKINRANGKSTSRIFLLTNNNLLLADQKSGQIKSEVPLVDVTKVSMSSQNDGFFAVHLKEGSEAASKGDFLFSSDHLIEMATKLYRTTLSQTKQKLNIEISDEFLVQFRQDKVCVKFIQGNQKNGSVPTCKRKNNRLLEVAVP [MYO1B] | -0.528 | -0.0354 | -0.836 | -0.507 | 50.5 °C | 50.1 °C
7 | MGRDTRSRSRSAGRRGRRRQSQSGSRSRSRSHGRRNRRRREDEGRRRRRRRSRERRSDSEEERWQRSGMRSRSPPRPKWHSRDGSSQSDSGEEQSRGQWARRRRRARSWSPSSSASSSASPGRSQSPRAAAAALSQQQSLQERLRLREERKQQEELMKAFETPEEKRARRLAKKEAKERKKREKMGWGEEYMGYTNTDNPFGDNNLLGTFIWNKALEKKGISHLEEKELKERNKRIQEDNRLELQKVKQLRLEREREKAMREQELEMLQREKEAEHFKTWEEQEDNFHLQQAKLRSKIRIRDGRAKPIDLLAKYISAEDDDLAVEMHEPYTFLNGLTVADMEDLLEDIQVYMELEQGKNADFWRDMTTITEDEISKLRKLEASGKGPGERREGVNASVSSDVQSVFKGKTYNQLQVIFQGIEGKIRAGGPNLDMGYWESLLQQLRAHMARARLRERHQDVLRQKLYKLKQEQGVESEPLFPILKQEPQSPSRSLEPEDAAPTPPGPSSEGGPAEAEVDGATPTEGDGDGDGEGEGEGEAVLMEEDLIQQSLDDYDAGRYSPRLLTAHELPLDAHVLEPDEDLQRLQLSRQQLQVTGDASESAEDIFFRRAKEGMGQDEAQFSVEMPLTGKAYLWADKYRPRKPRFFNRVHTGFEWNKYNQTHYDFDNPPPKIVQGYKFNIFYPDLIDKRSTPEYFLEACADNKDFAILRFHAGPPYEDIAFKIVNREWEYSHRHGFRCQFANGIFQLWFHFKRYRYRR [CACTIN] | -0.924 | 0.985 | 0.527 | 0.928 | 47.9 °C | 50.4 °C
8 | MALDVKSRAKRYEKLDFLGEGQFATVYKARDKNTNQIVAIKKIKLGHRSEAKDGINRTALREIKLLQELSHPNIIGLLDAFGHKSNISLVFDFMETDLEVIIKDNSLVLTPSHIKAYMLMTLQGLEYLHQHWILHRDLKPNNLLLDENGVLKLADFGLAKSFGSPNRAYTHQVVTRWYRAPELLFGARMYGVGVDMWAVGCILAELLLRVPFLPGDSDLDQLTRIFETLGTPTEEQWPDMCSLPDYVTFKSFPGIPLHHIFSAAGDDLLDLIQGLFLFNPCARITATQALKMKYFSNRPGPTPGCQLPRPNCPVETLKEQSNPALAIKRKRTEALEQGGLPKKLIF [CDK7] | 0.167 | -0.142 | 0.106 | 1.13 | 51 °C | 51 °C
9 | MALQLGRLSSGPCWLVARGGCGGPRAWSQCGGGGLRAWSQRSAAGRVCRPPGPAGTEQSRGLGHGSTSRGGPWVGTGLAAALAGLVGLATAAFGHVQRAEMLPKTSGTRATSLGRPEEEEDELAHRCSSFMAPPVTDLGELRRRPGDMKTKMELLILETQAQVCQALAQVDGGANFSVDRWERKEGGGGISCVLQDGCVFEKAGVSISVVHGNLSEEAAKQMRSRGKVLKTKDGKLPFCAMGVSSVIHPKNPHAPTIHFNYRYFEVEEADGNKQWWFGGGCDLTPTYLNQEDAVHFHRTLKEACDQHGPDLYPKFKKWCDDYFFIAHRGERRGIGGIFFDDLDSPSKEEVFRFVQSCARAVVPSYIPLVKKHCDDSFTPQEKLWQQLRRGRYVEFNLLYDRGTKFGLFTPGSRIESILMSLPLTARWEYMHSPSENSKEAEILEVLRHPRDWVR [CPOX] | 0.131 | -0.135 | -0.749 | -1.47 | 55 °C | 55 °C
